Measured values as given in PMC4682653.

Tested on: UvrY-His6 phosphorylated (UvrY-P) (Escherichia coli MG1655)
Experiment: EMSA
Conditions: in vitro phosphorylated; 20 mM Tris-HCl pH 7.5, 10% glycerol, 50 mM KCl, 3 mM MgCl2, 1 mM DTT, 100 ug/mL BSA, 0.5 nM DNA, 30 min at 37 C (Fig 3 legend: room temperature)

Row | Substance | binding signal (fold affinity vs non-phosphorylated UvrY)
1 | csrB EMSA probe (-246 to +49) | 2
2 | csrC EMSA probe (-247 to +56) | 2
